The target in this data set is Factor X, P00742.
Chain of Factor X, P00742 (P00742 whole entry, looked up): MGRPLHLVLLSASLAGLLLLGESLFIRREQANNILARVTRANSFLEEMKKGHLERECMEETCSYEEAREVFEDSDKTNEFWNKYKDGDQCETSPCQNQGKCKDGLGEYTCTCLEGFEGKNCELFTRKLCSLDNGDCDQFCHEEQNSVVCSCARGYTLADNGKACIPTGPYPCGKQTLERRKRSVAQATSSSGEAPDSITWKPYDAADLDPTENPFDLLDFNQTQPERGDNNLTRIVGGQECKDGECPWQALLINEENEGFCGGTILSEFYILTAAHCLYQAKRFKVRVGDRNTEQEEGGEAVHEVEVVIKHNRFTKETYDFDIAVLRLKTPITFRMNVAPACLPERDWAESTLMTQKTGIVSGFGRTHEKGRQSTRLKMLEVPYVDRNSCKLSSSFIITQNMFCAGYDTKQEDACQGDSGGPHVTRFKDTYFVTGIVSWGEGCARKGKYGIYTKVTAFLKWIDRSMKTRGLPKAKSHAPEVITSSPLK

B1: FIXa-Y155F/K247N/N249S/R318Y/R403E (protein)
chain 1: not shown
chain 2: not shown
Take B1: the “% of WT kcat/KM” value is 34%, the KM is 0.109 µM and the kcat/KM is 1.6e+07 M⁻¹ s⁻¹.

B2: FIXa-Y155F/K247N/N249S/R318Y/R338E (protein)
chain 1: not shown
chain 2: not shown
For the protein B2, the “% of WT kcat/KM” value is reported as 632%, the KM is 0.0263 µM and the kcat/KM worked out at 2.9e+08 M⁻¹ s⁻¹.

B3: FIXa-Y155F/K247N/N249S/R318Y/T343R (protein)
chain 1: not shown
chain 2: not shown
In the case of B3, the “% of WT kcat/KM” value came to 549%, the KM amounted to 0.0421 µM and the kcat/KM is 2.5e+08 M⁻¹ s⁻¹.

B4: FIXa-K247N/N249S/R338E/T343R/R403E/E410N (protein)
chain 1: not shown
chain 2: not shown
Consider B4, for which the “% of WT kcat/KM” value amounted to 930%, the Michaelis constant (KM) was determined as 0.0251 µM and the kcat/KM was found to be 4.3e+08 M⁻¹ s⁻¹.

B5: FIXa-Y155F/K247N/N249S/R318Y/E410N (protein)
chain 1: not shown
chain 2: not shown
With B5, the “% of WT kcat/KM” value is reported as 155%, the KM was found to be 0.0488 µM and the kcat/KM turned out to be 7.2e+07 M⁻¹ s⁻¹.

Usually KM stands for the substrate concentration at which the rate is half of its maximum. By kcat/KM is commonly meant the turnover number divided by the Michaelis constant.
